Legend:
[1] = molecular target: T1, GST-Zif268 (PED107) (mouse, UniProt P08046 SEQ:1-90); assay: EMSA; 1% agarose gel, RT 10 min, 0-4 uL of 1 mg/mL protein; shorter DNA trapped in well with increasing protein
[2] = molecular target: T1, GST-Zif268 (PED107); assay: EMSA; protein bound to Au-GSH nanoparticles; DNA co-migrated with Au particles; 1% agarose, 1xTAE, RT 10 min

B1: NZ-23 420 bp fragment with 23 tandem Zif268 sites separated by NRE sites (dsDNA)
DNA 1: AAGGGTTCAGCGTGGGCG
DNA 2: CGCCCACGCTGAACCCTT
- binding result [1]: binds

B2: NZ-23 (as added to Au-GSH/GST-Zif268 assay) (dsDNA)
DNA 1: AAGGGTTCAGCGTGGGCG
DNA 2: CGCCCACGCTGAACCCTT
- binding result [2]: binds
